Data as given in paper PMC7910490, “The biosynthetic pathway of potato solanidanes diverged from that of spirosolanes due to evolution of a dioxygenase” (Nature Communications, 2021).

Legend:
[1] = substrate: C[C@H]1CC[C@]2(NC1)O[C@H]1C[C@H]3[C@@H]4CC=C5C[C@@H](O)CC[C@]5(C)[C@H]4CC[C@]3(C)[C@H]1[C@@H]2C; test: purified protein, by the assay type; design: LC-MS of product formation by purified recombinant enzyme; Michaelis-Menten nonlinear regression (ANEMONA); settings: pH 7.2
Experimental: (§1) An in vitro enzyme activity assay was performed using 100 μl of reaction mixture containing 100 mM Bis–Tris–HCl (pH 7.2), 5 mM 2-oxoglutarate, 10 mM sodium ascorbate, 0.2 mM FeSO4, 25 μM substrate, and 1 μg purified recombinant proteins as the enzyme. The reaction was initiated by the addition of the enzyme and was carried out at 30 °C for 30 min. The reaction was then stopped by incubation for 2 min at 90 °C. After centrifugation, 20 μl of supernatant was diluted with 180 μl methanol and filtered through 0.2-μm nylon membrane filters (Acrodisc, Waters). An aliquot (2 μl) was analyzed using LC–MS, as described in “Feeding experiments” above. We determined the kinetic parameters of the recombinant DPS and St7070 in triplicate assays. The assays were conducted as described above, with minor modifications. Briefly, 0.1 μg purified DPS protein or 0.02 μg purified St7070 were used. […] A 20 μl sample of assay mixture was diluted with 180 μl methanol and filtered through 0.2-μm nylon membrane filters (Acrodisc, Waters). An aliquot (2 μl) was analyzed using LC–MS, as described above. The kinetic parameters were determined by nonlinear regression, using the ANEMONA program. Supplementary Fig. 21| Enzyme kinetics of purified recombinant DPS and St7070 with a-solamarine and (22S,25S)-spirosol-5-en-3b-ol. […]

[2] = substrate: C[C@H]1CC[C@]2(NC1)O[C@H]1C[C@H]3[C@@H]4CC=C5C[C@@H](O[C@@H]6O[C@H](CO)[C@H](O)[C@H](O[C@@H]7O[C@H](CO)[C@@H](O)[C@H](O)[C@H]7O)[C@H]6O[C@@H]6O[C@@H](C)[C@H](O)[C@@H](O)[C@H]6O)CC[C@]5(C)[C@H]4CC[C@]3(C)[C@H]1[C@@H]2C; test: purified protein, by the assay type; design: LC-MS of product formation by purified recombinant enzyme; Michaelis-Menten nonlinear regression (ANEMONA); settings: pH 7.2
Experimental: as §1

B1: St7070 (Solanum tuberosum) (protein)
chain: MASTKVTIPTIDFFNSELKPNTPQWELTKVQVFEALQEFGCFEAIYNKVPNEIREGMFDTLKEVFDFPLSKLIEYREKPFHIYDGQIPSVPLFGSVYSADLVLPNSVETFANTFWSHGNPNFSNVAKSYFKQLMELNGMVEKMVLESLGLKNYIDEFLNSNVYMSRFTNYKVIKGENENKSGLPSHTDSSYLTIIKQNQNGLQVLYKNGEWIELNHTSPNSYIVLSADALMAWTNDRLTSAQHRVVTTGDKDRFSVQLFSLVNPDYTLKVPKELVDEEHPLMYKPFKMPEYNKYLMLGAKNGLGVKNYCGL
- Km [1]: 19.6 ± 0.056 µM
- Km [2]: 1.7 ± 0.24 µM
